According to publication PMC9402538 (2022):
The star is where a group is joined. FITC = O=C1OC2(c3ccc(O)cc3Oc3cc(O)ccc32)c2ccc(NC(=S)*)cc21; Cbz = O=C(OCc1ccccc1)*

T1: APC (303–739) (UniProt P25054 303-739)
T1 chain: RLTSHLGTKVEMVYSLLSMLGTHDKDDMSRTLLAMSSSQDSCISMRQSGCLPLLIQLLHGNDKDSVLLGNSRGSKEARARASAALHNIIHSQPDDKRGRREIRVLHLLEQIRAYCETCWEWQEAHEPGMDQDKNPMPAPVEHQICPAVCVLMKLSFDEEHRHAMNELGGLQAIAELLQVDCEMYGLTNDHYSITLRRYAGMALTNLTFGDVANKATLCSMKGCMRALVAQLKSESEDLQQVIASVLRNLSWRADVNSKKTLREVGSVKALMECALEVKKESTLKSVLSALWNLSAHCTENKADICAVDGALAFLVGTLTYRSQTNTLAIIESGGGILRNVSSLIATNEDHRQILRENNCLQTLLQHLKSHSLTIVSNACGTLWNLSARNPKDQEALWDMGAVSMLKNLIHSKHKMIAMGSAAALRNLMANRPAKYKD


Target: T1, APC (303–739)
Assay: ITC

Binder	Ka [M⁻¹]
Cbz-AGESLYEK(FITC)-NH2 [tracer 7 (Z–AGESLYEK[FITC]–NH2)]	1.29e+07
Ac-GGGGEQLAINELISDGK(FITC)-NH2 [tracer 1 (Ac–GGGGEQLAINELISDGK[FITC]–NH2)]	1.73e+06
